The source of these data is US8173397B2, “Folded recombinant catalytic fragments of multidomain serine proteases, preparation and uses thereof” (TargetEx Kft., priority 2002, dated 2012).

The test system of series [1] is C4. Put plainly: C4 cleavage by MASP fragments. The format is biochemical, human. The settings on record: 37° C., pH 7.4; averages of 2 to 4 experiments, standard errors. The protocol: (§1) C2, C3, C3(NH3), C4 cleavage—Serial dilutions of MASP-1 and MASP-2 fragments ranging between concentrations of 1 μM and 10 pM were incubated at 37° C. in 20 mM HEPES, 140 mM NaCl, pH 7.4 with C2, C3, C3(NH3) or C4 at typical concentrations of 0.5-1 μM. The cleavage was followed by SDS-PAGE under reducing conditions. Desirable concentrations of the MASP fragments for further detailed kinetic analysis were chosen to be where half of the protein substrates were hydrolyzed during the first 20 minutes of incubation. The protein substrates C2, C3, C3(NH3) or C4 were then incubated with the selected concentrations of the MASP fragments at 37° C. in 20 mM HEPES, 140 mM NaCl, pH 7.4. Typically 11-13 samples were taken at varying time periods but always within 50 minutes from the beginning of the reaction. Cleavages rates were quantified by measuring the diminution of the cleaved chain visualized by Coomassie stained SDS-PAGs using a GEL DOC 1000 instrument and Molecular Analyst Software for densitometric calculations (Bio-Rad, Hercules, Calif., USA). The reactions were assumed to be of the Michaelis-Menten type. In the case of C3 and C3(NH3) cleavage a further reasonable assumption of KM>>[substrate] was made. The constants KM, kcat and […] were estimated by unbiased non-linear regression methods regressing the data on the following equations: t=([S0]−[S]+KMln([S0]/[S]))/(kcat[E0]) or in the case of C3 and C3(NH3) cleavage on [S]=[S0]exp(−t[E0]kcat/KM).

Series [2] in a line: Autoactivation of MASP fragments followed on reducing SDS-PAGE. The class given is biochemical. To be noted: after renaturation / purification. The source says:
The catalytic region of MASP-1 and MASP-2, consisting of the two complement control protein modules and the serine protease domain (CCP1-CCP2-SP) (FIG. 3.) was expressed in E. coli BL-21 cells using the pET-17b expression vector. In the case of MASP-2, truncated fragments of the catalytic region (the serine protease domain with one CCP module and the serine protease domain alone) (FIG. 3) were also expressed in the same expression system. Since the recombinant proteins accumulated as inclusion bodies inside the bacterial cells, renaturation procedures were needed to restore the native, folded structure (see Materials and Methods). The renatured recombinant proteins were purified by ion exchange chromatography on Q-Sepharose Fast Flow and Mono-S columns. The renaturation and the purification procedures were followed by SDS-PAGE and the purified proteins were subjected to N-terminal sequencing. Before renaturation the inclusion body proteins yielded single bands on the reducing SDS-PAGE corresponding to the zymogen form of the enzymes. […] The MASP-1 CCP1-CCP2-SP fragment co-purified with a minor contaminant, which migrated on SDS-PAGE as a band of 24 kDa under reducing and at 39 kDa under non-reducing conditions. […] The cleavage occurred at the Arg^504-Asp^505 bond removing the histidine from the catalytic triad and thus causing the loss of its enzymatic activity. […]

The target of series [3] is T1, C2 (Homo sapiens, UniProt P06681).
T1 construct: from tissue
T1 sequence (P06681 21-752): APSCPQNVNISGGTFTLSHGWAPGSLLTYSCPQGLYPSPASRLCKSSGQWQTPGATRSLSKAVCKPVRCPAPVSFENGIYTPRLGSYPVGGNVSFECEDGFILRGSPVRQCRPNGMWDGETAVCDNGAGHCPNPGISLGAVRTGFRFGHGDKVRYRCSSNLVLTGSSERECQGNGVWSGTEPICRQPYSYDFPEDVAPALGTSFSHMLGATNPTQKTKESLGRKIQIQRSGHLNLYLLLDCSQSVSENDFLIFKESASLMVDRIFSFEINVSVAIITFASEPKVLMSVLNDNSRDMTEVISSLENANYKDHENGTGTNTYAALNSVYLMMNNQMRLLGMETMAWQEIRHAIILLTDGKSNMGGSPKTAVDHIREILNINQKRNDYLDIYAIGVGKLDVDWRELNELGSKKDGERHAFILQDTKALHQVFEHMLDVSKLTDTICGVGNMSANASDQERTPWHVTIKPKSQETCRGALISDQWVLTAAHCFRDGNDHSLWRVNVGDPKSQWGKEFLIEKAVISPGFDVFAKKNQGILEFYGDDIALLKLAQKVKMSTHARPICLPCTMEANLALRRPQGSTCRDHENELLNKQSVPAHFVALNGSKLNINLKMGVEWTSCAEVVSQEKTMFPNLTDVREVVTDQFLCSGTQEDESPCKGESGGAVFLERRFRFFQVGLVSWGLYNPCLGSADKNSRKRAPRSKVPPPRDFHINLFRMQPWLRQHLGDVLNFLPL
Put plainly: C2 cleavage by MASP fragments. The format is biochemical. The settings on record: 37° C., pH 7.4; averages of 2 to 4 experiments, standard errors. How it is done:
as §1

B1: MASP-1γB: E. coli-expressed, refolded human MASP-1 CCP1-CCP2-SP fragment, Gly298 to Asn699 with N-terminal Ala-Ser-Met-Thr tag (protein)
chain 1: ASMTGNECPELQPPVHGKIEPSQAKYFFKDQVLVSCDTGYKVLKDNVEMDTFQIECLKDGTWSNKIPTCKIVDCRAPGELEHGLITFSTRNNLTTYKSEIKYSCQEPYYKMLNNNTGIYTCSAQGVWMNKVLGRSLPTCLPVCGLPKFSRKLMAR
chain 2: IFNGRPAQKGTTPWIAMLSHLNGQPFCGGSLLGSSWIVTAAHCLHQSLDPEDPTLRDSDLLSPSDFKIILGKHWRLRSDENEQHLGVKHTTLHPQYDPNTFENDVALVELLESPVLNAFVMPICLPEGPQQEGAMVIVSGWGKQFLQRFPETLMEIEIPIVDHSTCQKAYAPLKKKVTRDMICAGEKEGGKDACAGDSGGPMVTLNRERGQWYLVGTVSWGDDCGKKDRYGVYSYIHHNKDWIQRVTGVRN
Regarding B1, in series [1], the C4 kcat worked out at 0.002 ± 0.001 s⁻¹. Also, the “autoactivation, in words” value in series [2] is given as “fully activated”. Further, the C2 kcat in series [3] was determined as 0.10 ± 0.07 s⁻¹.
